Results published in patent US20250057951A1, “DISCERNIBLE CELL SURFACE PROTEIN VARIANTS OF CD117 FOR USE IN CELL THERAPY” (UNIVERSITÄT BASEL, priority 2021, published 2025).

Experiments:
CD117 = experiment: Blocking of SCF-induced CD117 phosphorylation (Tyr719 ELISA), wild type TF-1 cells; assay type: cell-based, human; details: 0.5 ug/mL antibody or 500 nM avapritinib; 100 ng/ml SCF 5 minutes
Method: (§1) SCF-dependent phosphorylation is another function of CD117. SCF-dependent phosphorylation was measured using TF-1 cells expressing CD117 (as shown in previous experiments). TF-1 cells were seeded at a concentration of 1 million cells/ml in 1 ml of Medium (RPMI1640 supplemented with GlutaMAX+10% heat inactivated FBS) in a 6-well plate. Cells were treated with 0.5 ug/mL antibody or 500 nM avapratinib. Cells were then treated with 100 ng/ml recombinant human SCF (1 mg/ml PeproGMP® Recombinant Human SCF) for 5 minutes, before cell collection. Cells were washed with ice-cold PBS, before resuspending cells in 250 μL Lysis Buffer (Lysis buffer from Signaling containing Protease Inhibitor and Phosphatase Inhibitor). Cells were flash frozen in liquid nitrogen and thawed at 37° C. twice, before freezing them at −80° C. until further usage. Undiluted samples were thawed and processed according to the manufacturers protocol for the PathScan® Phospho-c-Kit (Tyr719) Sandwich ELISA Kit (Cell Signaling). Absorbance (OD_450 nm) was assessed using the Envision (Perkin Elmer).
(§2) TF-1 cells (wild type, and variants E73K, E73Y, D121K, S123F and S123K of CD117) were seeded at a concentration of 1 million cells/mL in 2 ml of Medium (RPMI1640 supplemented with GlutaMAX+10% heat inactivated FBS) in a 6-well plate. Cells were pre-treated with 0.5 μg/ml of antibodies Refmab #1-Ernie or Refmab #1-Bert for 30 minutes, before adding 100 ng/ml recombinant human SCF (1 mg/mL PeproGMP® Recombinant Human SCF) for 5 minutes. Cells were collected, washed once with ice-cold PBS and resuspended in 500 μL Lysis Buffer (Lysis buffer from Signaling containing Protease Inhibitor and Phosphatase Inhibitor). Cells were then flash frozen in liquid nitrogen and thawed at 37° C. twice, before freezing them at −80° C. until further usage. Undiluted samples were thawed and processed according to the manufacturers protocol for the PathScan Phospho-c-Kit (Tyr719) Sandwich ELISA Kit (Cell Signaling) or the Human c-Kit (CD117) ELISA Kit (Abcam). Absorbance (OD_450 nm) was assessed using the Envision (Perkin Elmer).

[1] = system: TF-1 cells with knock-ins of CD117 variants; experiment: Inhibition of SCF-dependent proliferation, TF-1 cells with CD117 variant knock-in; assay type: cell-based, human; details: 100 ng/ml SCF; increasing concentrations; 3 days; E73K; all variants tested; listed as RefMab #1
Method: (§3) SCF-dependent proliferation is another function of CD117. SCF-dependent proliferation was measured as follows: TF-1 cells were seeded at a cell concentration of 150 000 cells/ml in sterile, white cell culture treated plates in RPMI Media+10% FCS. Cells were treated with 100 ng/ml of SCF and a titration of various CD117 antibodies or an isotype control antibody at different concentrations. After 3 days of incubation a CellTiter-Glo 2.0 assay (Promega) was performed and luminescence was read in a luminometer (e.g. Envision or Phera Star plate readers).
CD117 wild-type TF-1 cells were compared to TF1 cells with a E73K knock in. […] Both KI1 and KI2 were obtained upon sorting the edited TF1 cells using the SONY MA900, removing any wild-type and knock out cells from the final subsets, thus yielding high purity of knock in.
(§4) Next, proliferation of the variants was tested with increasing concentrations of RefMab #1 at a constant concentration of SCF (100 ng/ml). TF-1 cells were seeded at a cell concentration of 150 000 cells/ml in sterile, white cell culture treated plates with transparent bottom in RPMI+GlutaMax+10% FCS and a fix concentration of 100 ng/ml SCF in the media, Cells were treated with different concentrations of RefMab #1. After 3 days of incubation a CellTiter-Glo 2,0 assay (Promega) was performed, luminescence was read in a luminometer (Envision plate reader).

HSPC's = experiment: Inhibition of SCF-dependent proliferation, HSPCs; assay type: cell-based, human
Method: For human CD34+ HSCs (different donors) cells are seeded in X-Vivo 20 medium with 100 ng/ml SCF, 50 ng/ml TPO and 50 ng/ml FLT-3 Ligand in sterile white cell culture treated plates at a cell density of 30 000 cells/ml. HSCs are then treated with various CD117 antibodies or an isotype control antibody at different concentrations and plates are incubated for 5 days. After 5 days a CellTiter-Glo 2.0 assay (Promega) is performed and luminescence is read in a luminometer (e.g. Envision or Phera Star plate readers).

variants of CD117 = experiment: Blocking of SCF-induced CD117 phosphorylation (Tyr719 ELISA), TF-1 cells with CD117 variants; assay type: cell-based, human; details: 100 ng/ml SCF 5 minutes
Method: as §1, §2

wild type TF-1 cells = experiment: Inhibition of SCF-dependent proliferation, wild type TF-1 cells; assay type: cell-based, human; details: for effect on SCF-dependent proliferation of wild type TF-1 cells: 100 ng/ml SCF, increasing concentrations, 3 days
Method: as §3, §4

CD34+ progenitor cells = experiment: Additional HSC depletion experiment in NBSGW mice with edited HSPCs; assay type: in vivo; details: 4 mg/kg i.v. days 7, 9, 11, 12, 16 weeks, vs isotype control
Method: (§5) Depletion of human HSCs in mice using various mAbs was adapted from Pang et al. (Blood (2019) 133:2069-78).
NBSGW mice (Jackson Laboratories) were injected with 1 Mio HSPCs from 2 different donors carrying a E73K, S123K or D121K variant of CD117. Control groups of mice received unedited electroporation control HSPCs. 7, 9, 11 and 12 days after cell injection mice received 4 mg/kg antibody Refmab #1-Bert per dose i.v. 16 weeks later the mice were euthanized and blood, spleen and bone marrow were analyzed by FACS. To identify unedited and edited cells the CD117-specific antibody clones 104D2 and SR-1 were used. […] Cells were classified as unedited (104D2+ and SR-1+) or edited (104D2+ but SR-1−) based on double staining with both anti-CD117 clones.

CD117+ myeloid cells = experiment: Depletion experiment in NSG mice with E73K gene-edited HSPCs; assay type: in vivo; details: 25 mg/kg i.v. days 8, 10, 12, 14; 16 weeks; vs isotype control
Method: In another experiment, NSG mice (Jackson Laboratories) were sub-lethally irradiated one day before injection with 1 Mio gene-edited HSPCs carrying a E73K variant of CD117. 8, 10, 12 and 14 days after cell injection mice received 25 mg/kg antibody Refmab #1-Bert or 25 mg/kg isotope control antibody i.v. per dose. 16 weeks later the mice were euthanized, and blood, spleen and bone marrow were analyzed by FACS.
CD117+ myeloid cells were identified by FACS as live/hCD45+/CD33+/CD117+. […] Clone 104D2 was used as an expression control. Cells were classified as not edited (104D2+ and SR-1+) or E73K edited (104D2+ but SR-1−) based on double staining with anti-CD117 clone SR-1 and anti-CD117 clone 104D2.

human HSCs = experiment: HSC depletion in NBSGW mice engrafted with human HSPCs; assay type: in vivo; details: 25 mg/kg i.v. days 8, 10, 12, 14; analysis 16 weeks later; vs isotype control; live/hCD45+/CD34+/CD38−/CD45RA−/CD90+
Method: as §5
NBSGW mice (Jackson Laboratories) were injected with 1 Mio HSPCs. 8, 10, 12 and 14 days after cell injection mice received 25 mg/kg antibody Refmab #1-Bert per dose i.v. 16 weeks later the mice were euthanized and blood, spleen and bone marrow were analysed by FACS. […] HSCs were identified by FACS as live/hCD45+/CD34+/CD38−/CD45RA−/CD90+.

B1: Refmab #1: anti-CD117 antibody, VH SEQ ID 15, VL SEQ ID 16, human IgG1 Fc silent (AEASS); also tested as Fab (antibody, V domains shown)
VH: QVQLQQPGAELVKPGASVKMSCKASGYTFTSYNMHWVKQTPGQGLEWIGVIYSGNGDTSYNQKFKGKATLTADKSSSTAYMQINSLTSEDSAVYYCARERDTRFGNWGQGTLVTVSA
VL: NIVLTQSPASLAVSLGLRATISCRASESVDIYGNSFMHWYQQKPGQPPKLLIYLASNLESGVPARFSGSGSRTDFTLTIDPVEADDAATYYCQQNNEDPYTFGGGTKLEIK
modifications: human IgG1 Fc silent (AEASS); Refmab #1 VH; Refmab #1 VL
notes: also tested as Fab
For B1, the “blocking of SCF-induced phosphorylation, wild type cells” value (CD117) was “can be blocked”, the “effect on SCF-dependent proliferation of TF-1 cells with CD117 variants” value [1] was “not affected” and the “IC50 in SCF-dependent proliferation assay” value (HSPC's) was 0.0623 µg/mL. The “blocking of SCF-induced phosphorylation, E73K variant” value (variants of CD117; 0.5 ug/mL antibody or 500 nM avapritinib) was “unaffected”, the “effect on SCF-dependent proliferation of wild type TF-1 cells” value (wild type TF-1 cells) was “decrease in proliferation” and the “effect on SCF-dependent proliferation of wild type TF-1 cells” value (wild type TF-1 cells; listed as RefMab #1) was “pronounced effect”. For the same molecule, the “IC50 in SCF-dependent proliferation assay” value (wild type TF-1 cells; TF-1 cells) was 0.2760 µg/mL.

B2: Refmab #1-Bert: improved version of Refmab #1, VH SEQ ID 15, VL SEQ ID 63 (antibody, V domains shown)
VH: B1 VH
VL: EIVLTQSPSSLSASVGDRVTITCRASESVDIYGESFMHWYQQKPGKAPKLLIYLASNLESGVPSRFSGSGSGTDFTLTISSLQPEDFATYYCQQNKEEPYTFGQGTKLEIKRTV
modifications: Refmab #1 VH
For B2, the “blocking of SCF-induced phosphorylation, wild type cells” value (CD117) was “blocked”, the “effect on E73K, D121K and S123K-edited cells” value (CD34+ progenitor cells) was “enrichment of E73K, D121K and S123K-edited variant cells” and the “effect on unedited CD34+ progenitor cells” value (CD34+ progenitor cells; live/hCD45+/CD34+/CD38−) was “depletion of unedited CD34+ progenitor cells”. For the same molecule, the “effect on E73K variant CD117+ myeloid cells in bone marrow” value (CD117+ myeloid cells) was “enrichment of E73K variant cells”, the “effect on unedited CD117+ myeloid cells in bone marrow” value (CD117+ myeloid cells) was “depletion of unedited cells” and the “bone marrow HSC depletion” value (human HSCs) was “in vivo depletion of HSCs”. The “blocking of SCF-dependent CD117 phosphorylation, D121K and S123K variants” value (variants of CD117; 0.5 μg/ml antibody 30 minutes, same for E73K, E73Y, S123F (data not shown)) was “unaffected”.
